1 substance from patent publication US20050158362A1, “Polymeric, fiber matrix delivery systems for bioactive compounds” (priority 2000, published 2005) can be followed below.

This data set in a line: In vitro release of FITC-BSA from the fiber matrix into an infinite sink of 37° C. phosphate buffered saline. Conditions: polylactic glycolic acid fiber matrix. The class given is physicochemical. The text has this:
To construct the bioactive compound-loaded matrices, various concentrations of finely ground FITC-BSA were suspended in biodegradable polymer polylactic glycolic acid in 50:50 dimethyl formamide:tetrahydrofuran. Suspensions contained in a glass syringe with a capillary tip were electrospun into approximately 500 nm diameter fibers via an electrostatic based self-assembly process in which a high voltage electric field was generated between the oppositely charged polymer and a metallic collection screen. At a critical voltage the charge overcomes the surface tension of the deformed polymer drop at the needle tip, producing an ultrafine jet. The similarly charged fibers are splayed and during their passage to the screen, the solvent quickly evaporates so that dry fibers accumulate randomly on the screen forming a mesh matrix.
In vitro release of the FITC-BSA into an infinite sink of 37° C. phosphate buffered saline was also measured. This sink mimics in vivo conditions.
A 25% (w/v) solution of polylactic glycolic acid was prepared in a 50:50 mixture of dimethylformamide and tetrahydrofuran. […]
In vitro release of the FITC-BSA into an infinite sink of 37° C. phosphate buffered saline was measured. […] The amount of protein released was measured in the form of fluorescence of the FITC-BSA on a spectrophotofluorometer at an excitation wavelength of 495 nm and an emission wavelength of 513 nm.

Turning to “FITC-BSA: fluorescently labeled bovine serum albumin dispersed between electrospun polylactic glycolic acid fibers of the matrix”, the “in vitro release profile of FITC-BSA” value is on record as “release in the first 24 hours after initiation was dominant”. Moreover, the “duration of observed in vitro release of FITC-BSA” value (fluorescence readout) is “over 120 hours”.
